Reference: patent US20200262898A1

Key:
CD147 = CD147 (UniProt P35613); assay: flow cytometry on cells transfected with the target; signal over mock-transfected cells (background = 1.0)
[1] = target: Fc-binding protein (the ZZ domain of ProA); assay: flow cytometry on cells expressing the Fc-binding ZZ domain on their surface; given as a measure of expression
CD151 = target: T1, CD151 (UniProt P48509); assay: flow cytometry on cells transfected with the target; signal over mock-transfected cells (background = 1.0)
T1 sequence (looked up): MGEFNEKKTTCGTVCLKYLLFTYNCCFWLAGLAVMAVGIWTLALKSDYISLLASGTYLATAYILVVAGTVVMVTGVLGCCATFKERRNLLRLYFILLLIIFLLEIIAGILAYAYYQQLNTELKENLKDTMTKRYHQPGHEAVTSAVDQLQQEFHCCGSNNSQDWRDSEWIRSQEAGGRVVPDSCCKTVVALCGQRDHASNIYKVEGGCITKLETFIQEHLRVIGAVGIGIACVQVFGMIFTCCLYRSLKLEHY

IGSF8 = target: T2, IGSF8 (UniProt Q969P0); assay: as above
T2 sequence (looked up): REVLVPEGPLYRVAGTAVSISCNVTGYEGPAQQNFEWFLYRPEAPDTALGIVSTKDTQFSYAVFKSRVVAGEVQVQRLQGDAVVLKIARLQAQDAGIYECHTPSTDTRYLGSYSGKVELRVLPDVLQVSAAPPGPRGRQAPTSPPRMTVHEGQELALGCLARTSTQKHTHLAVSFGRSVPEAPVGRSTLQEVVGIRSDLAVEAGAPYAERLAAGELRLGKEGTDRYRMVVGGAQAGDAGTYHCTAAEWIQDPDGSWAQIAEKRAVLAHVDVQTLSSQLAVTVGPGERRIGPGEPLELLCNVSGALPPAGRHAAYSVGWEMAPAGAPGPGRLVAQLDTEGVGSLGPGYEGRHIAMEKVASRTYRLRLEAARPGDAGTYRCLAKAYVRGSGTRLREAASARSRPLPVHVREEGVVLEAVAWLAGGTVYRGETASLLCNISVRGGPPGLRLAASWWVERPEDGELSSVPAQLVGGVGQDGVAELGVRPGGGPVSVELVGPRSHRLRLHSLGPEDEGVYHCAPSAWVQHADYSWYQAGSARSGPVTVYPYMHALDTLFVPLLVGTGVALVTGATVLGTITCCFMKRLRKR

CD63 = CD63 (UniProt P08962); assay: as above
CD81 = target: T3, CD81 (UniProt P60033); assay: as above
T3 sequence (looked up): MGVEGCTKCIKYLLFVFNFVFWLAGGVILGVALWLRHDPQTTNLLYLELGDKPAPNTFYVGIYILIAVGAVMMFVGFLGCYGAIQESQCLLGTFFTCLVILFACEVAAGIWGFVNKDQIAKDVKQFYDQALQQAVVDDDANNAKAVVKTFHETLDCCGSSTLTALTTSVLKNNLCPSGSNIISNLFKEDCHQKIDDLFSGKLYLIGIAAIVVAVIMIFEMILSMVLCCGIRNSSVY

CD59 = target: T4, CD59 (UniProt P13987); assay: as above
T4 sequence (looked up): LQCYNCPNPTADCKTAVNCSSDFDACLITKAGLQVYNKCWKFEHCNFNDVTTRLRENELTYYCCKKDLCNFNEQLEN

B1: Antibody of common light chain C11 (C11chicken) paired with the heavy chain against CD147 (antibody, V domains shown)
VH: AVTLDESGGGLQTPGGGLSLVCKASGFTFSSYAMYWVRQAPGKGLQWVAGISRDGSSGRYGAAVKGRATISRDNGQSTVRLQLNNLRAEDTATYFCAKSGYGDYTSADEIDAWGHGTEVIVSS
VL: ALTQPSSVSANPGETVKITCSGGGSWYGSYYYGWYQQKSPGSAPVTLIYNNDKRPSDIPSRFSGSESGSTATLTITGVQAEDEAVYFCGGYDSTTTDMFGAGTTLTVL
S:B Binding (CD147): 1.4 S:B

B2: Antibody of common light chain F10 (F10chicken) paired with the heavy chain against CD151 (antibody, V domains shown)
VH: AVTLDESGGGLQMPGGALSLVCKASGFTFSSYGMEWVRQAPGKGLEWVAGISSGGGSTDYGTAVKGRATISRDNGQSTVRLQLNNLRAEDTGTYFCAKSAYGGTWDGDDIDAWGHGTEVIVSS
VL: ALTQPSSVSANPGETVKITCSGGYNGHYGWYQQKSPGSAPVTVIYSNNQRPSNIPSRFSGSTSGSTSTLTITGVRAEDEAVYFCGGYDSSAGIFGAGTTLTVL
S:B Expression [1]: 13.7 S:B
S:B Binding (CD151): 25.1 S:B

B3: Antibody of common light chain F10 (F10chicken) paired with the heavy chain against IGSF8 (antibody, V domains shown)
VH: AVTLDESGGGLQTPGGGLSLVCKASGFSISSYEMQWVRQAPGKGLEWVAGIDDDGSSRAYAPAVKGRATISRDNGQSTVRLQLNNLRAEDTGTYYCAKTIYAATLNAGEIDAWGHGTEVIVSS
VL: B2 VL
S:B Expression [1]: 11.9 S:B
S:B Binding (IGSF8): 1.6 S:B

B4: Antibody of common light chain F10 (F10chicken) paired with the heavy chain against CD63 (antibody, V domains shown)
VH: AVTLDESGGGLQTPGGALSLVCKASGFTFSDRGMHWVRQAPGKGLEWVAGIRSTGSFTLYGAAVKGRATISRDDGQSTLRLQLNNLRAEDTGTYYCAKSAGGYGCGRGWCGVDDIDAWGHGTEVIVSS
VL: B2 VL
S:B Expression [1]: 15.5 S:B
S:B Binding (CD63): 5.2 S:B

B5: Antibody of common light chain F10 (F10chicken) paired with the heavy chain against CD81 (antibody, V domains shown)
VH: AVTLDESGGGLQTPGGALSLVCKASGFSIGDYNMGWVRQAPGKGLEWVAGIDAGGGTWRATAVKGRATISRDNGQSTVRLQLNNLRAEDTATYFCAKSTDSSANCCANSIDAWGHGTEVIVSS
VL: B2 VL
S:B Expression [1]: 11.1 S:B
S:B Binding (CD81): 0.4 S:B

B6: Antibody of common light chain F10 (F10chicken) paired with the heavy chain against CD147 (antibody, V domains shown)
VH: B1 VH
VL: B2 VL
S:B Expression [1]: 15.5 S:B
S:B Binding (CD147): 5.7 S:B

B7: Antibody of common light chain F10 (F10chicken) paired with the heavy chain against CD59 (antibody, V domains shown)
VH: AVTLDESGGGLQTPGGGLSLVCKASGFDFSSFDMVWVRQAPGKGLEWVAGISYSNTDTSYAPAVDGRATISRDNGQSTVRLQLNNLRAEDSATYYCAKSAGGCCYRADNIDAWGHGTEVIVSS
VL: B2 VL
S:B Expression [1]: 12.2 S:B
S:B Binding (CD59): 14.6 S:B

B8: Antibody of common light chain B9 (B9chicken) paired with the heavy chain against CD147 (antibody, V domains shown)
VH: B1 VH
VL: ALTQPSSVSANPGETVKITCSGGGSSNYYGWYQQKSPGSAPVTLIYGTNKRPSDIPSRFSGSKSGSTGTLTITGVQADDEAVYFCGSADSSTNAGIFGAGTTLTVL
S:B Binding (CD147): 10.3 S:B
